Measured values as given in patent publication US20250282887A1 (Amgen, published 2025).
Numbering of substitutions follows the chain as printed.

T1: human MAGEA4 (human, UniProt P43358 1-317)
T1 construct: whole, on cells; Transfected into CHO cells with Myc/DDK tags
T1 sequence (looked up): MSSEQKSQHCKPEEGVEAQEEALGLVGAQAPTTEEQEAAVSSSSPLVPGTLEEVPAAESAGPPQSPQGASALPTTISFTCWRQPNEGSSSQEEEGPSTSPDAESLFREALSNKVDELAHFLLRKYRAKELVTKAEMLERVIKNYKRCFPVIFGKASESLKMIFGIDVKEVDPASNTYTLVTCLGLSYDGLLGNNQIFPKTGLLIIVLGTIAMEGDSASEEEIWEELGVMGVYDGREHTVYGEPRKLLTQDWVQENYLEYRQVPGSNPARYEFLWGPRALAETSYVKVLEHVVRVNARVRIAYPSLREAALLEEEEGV

T2: human MAGEB5 (human, UniProt Q9BZ81 1-275)
T2 construct: whole, on cells; Transfected into CHO cells with Myc/DDK tags; also called CHO-MAGEB5+ cells
T2 sequence (looked up): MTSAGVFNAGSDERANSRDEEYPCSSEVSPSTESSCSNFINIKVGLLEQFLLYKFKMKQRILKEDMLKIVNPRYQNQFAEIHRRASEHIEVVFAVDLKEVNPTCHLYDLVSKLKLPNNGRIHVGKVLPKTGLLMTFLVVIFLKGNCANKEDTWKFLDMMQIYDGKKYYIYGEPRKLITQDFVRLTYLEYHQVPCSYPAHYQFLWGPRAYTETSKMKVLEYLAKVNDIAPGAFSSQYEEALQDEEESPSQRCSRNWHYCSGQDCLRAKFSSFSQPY

B1: 1I14 (antibody, V domains shown)
VH: QSVEESGGRLVTPGTPLTLTCTISGFSLSSYAMSWVRQAPGKGLEWIGSIGGGGSAVYASWAKGRFTISKTSTTVDLRITSPTTEDTAMYFCGRGFYSIDLWGPGTLVTVSS
VL: DVVMTQTPASVEATVGGTVTIKCQSSQSVYDNNALAWYQQNAGQRPRLLIYGASTLASGVPSRFSASGSGTEFTLTISDLECADAATYYCQCTYYVSSYQNDFGGGTEVVVKG
notes: also called MAGE-B2 (1i14)
B2: 1C3 (antibody, V domains shown)
VH: QSLEESGGGLVQPEGSLTLTCTAFGVTLTNYYICWVRQAPGKGLEWVGCIDNANGRTYYASWAKGRFTISKTSSTTGTLQMTSLTAADTATYFCARSLATPLWGPGTLVTVSS
VL: DIVMTQTPSSVEAAVGGTVTIKCQASQNISSYLAWYQQKPGQPPKLLIYRASTLASGVPSRFKGSGSGTQFTLTISDLECADAATYYCQSYDDSRSSNFFYAFGGGTEVVVKG
notes: also called MAGE-B2 (IC3); anti-MAGEB2 antibody 1C3
B3: 4G17 (antibody, IgG1, V domains shown)
VH: B2 VH with F24S, T29S, V47I, A53V
VL: DIVMTQTPASVEAAVGGTVTIKCQASQNIDSYLAWYQQKPGQPPKLLIYRASTLASGVPSRFKGSGSGTEFTLTISDLECADAATYYCQSYDDSRSSSFFYGFGGGTEVVVK
notes: Rabbit monoclonal IgG1; Tested as supernatant and as small batch purified antibody; also called MAGE-B2 (4G17); anti-MAGEB2 antibody 4G17
B4: 1J15 (antibody, IgG1, V domains shown)
VH: B2 VH with V26F, T29N, V47I, G48A, G77V, A99S
VL: B3 VL with N28S, D30S, A34S, K63R, E70Q, R95S, S96D, S97N, S98N, K112R
notes: Rabbit monoclonal IgG1; Tested as supernatant and as small batch purified antibody; also called MAGE-B2 (IJ15); anti-MAGEB2 antibody 1J15

Target: T1, human MAGEA4
Assay: IHC, FFPE CHO cells transfected with human MAGEA4
Text: (§1) Negative control cells included parental Chinese hamster ovary (CHO) cells, CHO cells stably transfected with mCherry Vector Control (minus Myc/DDK tags), CHO cells stably transfected with mCherry-human DCAF4L2 (plus Myc/DDK tags). The cross-reactivity control cells included CHO cells transfected with mCherry Vector Control (plus Myc/DDK tags) with one of the human MAGE-B or MAGE-A family members (MAGEA1, MAGEA2, MAGEA3, MAGEA4, MAGEA5, MAGEA6, MAGEA8, MAGEA9, MAGEA11, MAGEA12, MAGEB1, MAGEB3, MAGEB4, MAGEB5, MAGEB6, MAGEB10, MAGEB16, MAGEB17, MAGEB18). Positive control cell lines included CHO cells transfected with mCherry Vector (plus Myc/DDK tags) with human MAGE-B2 or CHO cells transfected with mCherry Vector (open reading frame (ORF); minus Myc/DDK tags) with human MAGEB2, and thirteen human cancer cell lines with known endogenous RNA expression level of MAGEB2 (U266B1, T98G, KMM-1, U20S, CFPAC-1, SCaBER, UACC-257, CFPAC-1, VMRC-LCD, NCI-H1703, UM-UC-3, NCI-H1395, NCIH82).
(§2) FFPE samples were sectioned at 4 μm and mounted on positive charged glass slides. After mounting, paraffin sections were air-dried at room temperature. FFPE TMA samples were received as freshly sectioned and mounted on glass slides. The fully automated IHC assay was performed on a Discovery Ultra Stainer (Ventana Medical Systems, Tucson, AZ) using Ventana Anti-Rabbit HQ (cat #760-4815), Ventana Anti-HQ HRP (cat #760-4820), and Ventana Antibody Diluent with Casein (cat #760-219) (Ventana Medical Systems, Tucson, AZ). The slides were baked on the Discovery Ultra Stainer at 60° C. for 8 minutes, de-paraffinized with Ventana Discovery wash (cat #950-510) for 3 cycles (8 minutes each) at 69° C., and underwent cell conditioning (target retrieval) at 95° C. for 16 minutes (for cell arrays) or 32 minutes (tissues or TMAs) in CC1 buffer (cat #950-500). Following this, slides were incubated with Background Sniper (cat #BS966M, Biocare Medical, Pacheco, CA) in a Ventana Option Prep kit (cat #771-751) for 28 minutes, incubated with CM inhibitor (a part of the Ventana DAB kit cat #760-159) for 12 minutes, and incubated for 1 h at RT with MAGE-B2 antibody diluted with Ventana diluent with Casein in a Ventana Prep kit (cat #770-001) (working concentration at 0.1 μg/ml for cell pellet, or 1-5 ug/ml for tissues) or with a matched concentration of isotype control Rabbit IgG1 antibody.

Binding result, no binding (tested: 0.1 µg/ml):
B1, B2, B3, B4

Target: T2, human MAGEB5
Assay: IHC, FFPE CHO cells transfected with human MAGEB5
Text: as §1, §2

Binding result, no binding (tested: 0.1 µg/ml):
B1, B2, B3, B4
